Source: PMC6613617, “Human DNA polymerase delta requires an iron–sulfur cluster for high-fidelity DNA synthesis”

Key:
[1] = target: T1, POLD1-HY;POLD2;POLD3;POLD4 (Homo sapiens;Homo sapiens;Homo …, UniProt P28340;P49005;Q15054;Q9HCU8 1-1107;1-469;1-466;1-107, H1066Y|||); assay: EMSA; without PCNA; not impaired; EMSA: 20 mM Tris-HCl pH 8.0, 20 mM KCl, 1 mM EDTA, 0.5 mM TCEP, 20 nM probe, 10-80 nM Pol delta, 25 C 30 min; 7% native PAGE, 0.5x TBE; settings: protein: recombinant;recombinant;recombinant;recombinant; copies: 1;1;1;1; label: 5'-fluorescein (FAM) on strand 1; blunt; one unpaired A in strand 2 as printed
[2] = target: T2, POLD1-HW;POLD2;POLD3;POLD4 (Homo sapiens;Homo sapiens;Homo …, UniProt P28340;P49005;Q15054;Q9HCU8 1-1107;1-469;1-466;1-107, H1066W|||); assay: as above; settings: protein: recombinant;recombinant;recombinant;recombinant; copies: 1;1;1;1; label: 5'-fluorescein (FAM) on strand 1; blunt; one unpaired A in strand 2 as printed
[3] = target: T3, POLD1-CS;POLD2;POLD3;POLD4;PCNA (Homo sapiens;Homo sapiens;Homo …, UniProt P28340;P49005;Q15054;Q9HCU8;P12004 1-1107;1-469;1-466;1-107;1-261, C1076S||||); assay: EMSA; copurified with PCNA; defect alleviated; EMSA: 20 mM Tris-HCl pH 8.0, 20 mM KCl, 1 mM EDTA, 0.5 mM TCEP, 20 nM probe, 10-80 nM Pol delta, 25 C 30 min; 7% native PAGE, 0.5x TBE; settings: protein: recombinant;recombinant;recombinant;recombinant;recombinant; copies: 1;1;1;1;3; label: 5'-fluorescein (FAM) on strand 1; blunt; one unpaired A in strand 2 as printed
[4] = target: T1, POLD1-HY;POLD2;POLD3;POLD4; assay: EMSA; without PCNA; EMSA: 20 mM Tris-HCl pH 8.0, 20 mM KCl, 1 mM EDTA, 0.5 mM TCEP, 20 nM probe, 10-80 nM Pol delta, 25 C 30 min; 7% native PAGE, 0.5x TBE; settings: protein: recombinant;recombinant;recombinant;recombinant; copies: 1;1;1;1; label: 5'-fluorescein (FAM) on strand 1; 5' overhang 16 nt on template strand 2; one unpaired A in strand 2 as printed
[5] = target: T2, POLD1-HW;POLD2;POLD3;POLD4; assay: as above; settings: protein: recombinant;recombinant;recombinant;recombinant; copies: 1;1;1;1; label: 5'-fluorescein (FAM) on strand 1; 5' overhang 16 nt on template strand 2; one unpaired A in strand 2 as printed
[6] = target: POLD1 WT (catalytic subunit of Pol delta);POLD2;POLD3;POLD4 (Homo sapiens;Homo sapiens;Homo …, UniProt P28340;P49005;Q15054;Q9HCU8 1-1107;1-469;1-466;1-107, |||); assay: as above; settings: protein: recombinant;recombinant;recombinant;recombinant; copies: 1;1;1;1; label: 5'-fluorescein (FAM) on strand 1; 5' overhang 16 nt on template strand 2; one unpaired A in strand 2 as printed
[7] = target: POLD1-HW;POLD2;POLD3;POLD4;PCNA (Homo sapiens;Homo sapiens;Homo …, UniProt P28340;P49005;Q15054;Q9HCU8;P12004 1-1107;1-469;1-466;1-107;1-261, H1066W||||); assay: EMSA; copurified with PCNA; EMSA: 20 mM Tris-HCl pH 8.0, 20 mM KCl, 1 mM EDTA, 0.5 mM TCEP, 20 nM probe, 10-80 nM Pol delta, 25 C 30 min; 7% native PAGE, 0.5x TBE; settings: protein: recombinant;recombinant;recombinant;recombinant;recombinant; copies: 1;1;1;1;3; label: 5'-fluorescein (FAM) on strand 1; 5' overhang 16 nt on template strand 2; one unpaired A in strand 2 as printed
[8] = target: POLD1 WT (catalytic subunit of Pol delta);POLD2;POLD3;POLD4;PCNA (Homo sapiens;Homo sapiens;Homo …, UniProt P28340;P49005;Q15054;Q9HCU8;P12004 1-1107;1-469;1-466;1-107;1-261, ||||); assay: as above; settings: protein: recombinant;recombinant;recombinant;recombinant;recombinant; copies: 1;1;1;1;3; label: 5'-fluorescein (FAM) on strand 1; 5' overhang 16 nt on template strand 2; one unpaired A in strand 2 as printed
[9] = target: POLD1-HY;POLD2;POLD3;POLD4;PCNA (Homo sapiens;Homo sapiens;Homo …, UniProt P28340;P49005;Q15054;Q9HCU8;P12004 1-1107;1-469;1-466;1-107;1-261, H1066Y||||); assay: as above; settings: protein: recombinant;recombinant;recombinant;recombinant;recombinant; copies: 1;1;1;1;3; label: 5'-fluorescein (FAM) on strand 1; 5' overhang 16 nt on template strand 2; one unpaired A in strand 2 as printed
[10] = target: T4, POLD1-CS;POLD2;POLD3;POLD4 (Homo sapiens;Homo sapiens;Homo …, UniProt P28340;P49005;Q15054;Q9HCU8 1-1107;1-469;1-466;1-107, C1076S|||); assay: EMSA; without PCNA; less second (super-shifted) band than WT; EMSA: 20 mM Tris-HCl pH 8.0, 20 mM KCl, 1 mM EDTA, 0.5 mM TCEP, 20 nM probe, 10-80 nM Pol delta, 25 C 30 min; 7% native PAGE, 0.5x TBE; settings: protein: recombinant;recombinant;recombinant;recombinant; copies: 1;1;1;1; label: 5'-fluorescein (FAM) on strand 1; 5' overhang 16 nt on template strand 2; one unpaired A in strand 2 as printed
[11] = target: T3, POLD1-CS;POLD2;POLD3;POLD4;PCNA; assay: EMSA; copurified with PCNA; less second (super-shifted) band than WT; EMSA: 20 mM Tris-HCl pH 8.0, 20 mM KCl, 1 mM EDTA, 0.5 mM TCEP, 20 nM probe, 10-80 nM Pol delta, 25 C 30 min; 7% native PAGE, 0.5x TBE; settings: protein: recombinant;recombinant;recombinant;recombinant;recombinant; copies: 1;1;1;1;3; label: 5'-fluorescein (FAM) on strand 1; 5' overhang 16 nt on template strand 2; one unpaired A in strand 2 as printed
[12] = target: T4, POLD1-CS;POLD2;POLD3;POLD4; assay: EMSA; without PCNA; no defect; EMSA: 20 mM Tris-HCl pH 8.0, 20 mM KCl, 1 mM EDTA, 0.5 mM TCEP, 20 nM probe, 10-80 nM Pol delta, 25 C 30 min; 7% native PAGE, 0.5x TBE; settings: protein: recombinant;recombinant;recombinant;recombinant; copies: 1;1;1;1; label: 5'-fluorescein (FAM); single strand
[13] = target: T3, POLD1-CS;POLD2;POLD3;POLD4;PCNA; assay: EMSA; copurified with PCNA; no defect; EMSA: 20 mM Tris-HCl pH 8.0, 20 mM KCl, 1 mM EDTA, 0.5 mM TCEP, 20 nM probe, 10-80 nM Pol delta, 25 C 30 min; 7% native PAGE, 0.5x TBE; settings: protein: recombinant;recombinant;recombinant;recombinant;recombinant; copies: 1;1;1;1;3; label: 5'-fluorescein (FAM); single strand

Measured: binding result

T1 sequence (P28340 whole entry H1066Y, chain 1 of 4): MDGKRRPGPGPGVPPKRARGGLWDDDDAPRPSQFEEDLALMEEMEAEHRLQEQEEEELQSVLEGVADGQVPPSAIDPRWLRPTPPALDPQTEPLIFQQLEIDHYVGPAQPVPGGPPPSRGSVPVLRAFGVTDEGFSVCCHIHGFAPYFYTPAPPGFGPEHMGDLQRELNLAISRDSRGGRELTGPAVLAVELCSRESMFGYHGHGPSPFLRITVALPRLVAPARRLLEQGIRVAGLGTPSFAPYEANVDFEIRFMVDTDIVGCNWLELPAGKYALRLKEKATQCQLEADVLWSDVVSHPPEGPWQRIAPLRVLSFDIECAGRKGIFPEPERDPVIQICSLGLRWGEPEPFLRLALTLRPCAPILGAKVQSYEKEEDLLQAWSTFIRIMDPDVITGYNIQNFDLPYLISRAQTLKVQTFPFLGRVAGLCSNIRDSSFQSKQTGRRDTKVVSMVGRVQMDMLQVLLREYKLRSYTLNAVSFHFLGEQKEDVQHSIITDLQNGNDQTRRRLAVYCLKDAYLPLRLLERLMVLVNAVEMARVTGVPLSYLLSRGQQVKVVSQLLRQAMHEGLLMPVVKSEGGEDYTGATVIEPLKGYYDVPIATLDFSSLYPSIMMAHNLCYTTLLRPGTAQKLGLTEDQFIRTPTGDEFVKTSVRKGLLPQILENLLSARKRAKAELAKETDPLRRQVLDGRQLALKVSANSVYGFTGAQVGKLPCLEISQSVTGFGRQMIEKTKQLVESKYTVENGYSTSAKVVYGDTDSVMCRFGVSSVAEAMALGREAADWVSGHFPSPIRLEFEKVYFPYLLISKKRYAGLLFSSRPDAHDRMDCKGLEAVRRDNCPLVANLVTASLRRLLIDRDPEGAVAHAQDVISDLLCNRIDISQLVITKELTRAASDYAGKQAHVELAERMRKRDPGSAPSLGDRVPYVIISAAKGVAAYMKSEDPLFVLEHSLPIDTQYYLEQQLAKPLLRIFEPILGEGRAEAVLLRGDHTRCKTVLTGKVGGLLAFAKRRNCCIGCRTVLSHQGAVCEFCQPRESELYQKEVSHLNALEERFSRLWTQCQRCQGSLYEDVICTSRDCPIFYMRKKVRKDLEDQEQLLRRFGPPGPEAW
T1 sequence (P49005 whole entry, chain 2 of 4): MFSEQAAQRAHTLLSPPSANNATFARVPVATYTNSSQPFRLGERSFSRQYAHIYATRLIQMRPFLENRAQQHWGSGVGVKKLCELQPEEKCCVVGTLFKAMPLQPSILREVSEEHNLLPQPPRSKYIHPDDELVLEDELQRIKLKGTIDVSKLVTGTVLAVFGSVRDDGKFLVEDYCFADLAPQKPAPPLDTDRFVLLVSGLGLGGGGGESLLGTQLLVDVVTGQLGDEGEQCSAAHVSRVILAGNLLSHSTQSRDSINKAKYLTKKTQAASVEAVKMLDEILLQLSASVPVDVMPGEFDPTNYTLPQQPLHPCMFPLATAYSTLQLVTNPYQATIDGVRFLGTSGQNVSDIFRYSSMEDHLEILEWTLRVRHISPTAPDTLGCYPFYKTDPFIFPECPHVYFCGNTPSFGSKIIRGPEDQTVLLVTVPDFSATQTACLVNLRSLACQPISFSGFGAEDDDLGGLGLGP
T1 sequence (Q15054 whole entry, chain 3 of 4): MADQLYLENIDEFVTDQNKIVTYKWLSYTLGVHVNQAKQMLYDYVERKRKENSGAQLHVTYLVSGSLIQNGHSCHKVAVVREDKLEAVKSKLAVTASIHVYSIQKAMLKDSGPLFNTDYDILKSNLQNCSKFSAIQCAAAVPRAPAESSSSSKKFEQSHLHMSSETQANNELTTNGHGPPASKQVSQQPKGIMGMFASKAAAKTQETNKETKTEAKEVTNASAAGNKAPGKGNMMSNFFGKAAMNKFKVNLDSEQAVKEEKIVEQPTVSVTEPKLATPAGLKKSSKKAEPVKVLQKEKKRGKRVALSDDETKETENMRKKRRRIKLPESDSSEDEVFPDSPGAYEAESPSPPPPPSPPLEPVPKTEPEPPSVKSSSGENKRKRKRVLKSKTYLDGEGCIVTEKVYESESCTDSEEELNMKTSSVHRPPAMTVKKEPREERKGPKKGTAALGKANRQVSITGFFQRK
T1 sequence (Q9HCU8 whole entry, chain 4 of 4): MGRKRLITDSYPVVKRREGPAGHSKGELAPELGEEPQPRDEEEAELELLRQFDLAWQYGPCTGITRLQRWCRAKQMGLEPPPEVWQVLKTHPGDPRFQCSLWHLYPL
T4 sequence (P28340 whole entry C1076S, chain 1 of 4): as the sequence (P28340 whole entry H1066Y, chain 1 of 4) above, with Y1066H, C1076S counted along it
T4 sequence (P49005 whole entry, chain 2 of 4): as the sequence (P49005 whole entry, chain 2 of 4) above
T4 sequence (Q15054 whole entry, chain 3 of 4): as the sequence (Q15054 whole entry, chain 3 of 4) above
T4 sequence (Q9HCU8 whole entry, chain 4 of 4): as the sequence (Q9HCU8 whole entry, chain 4 of 4) above
T2 sequence (P28340 whole entry H1066W, chain 1 of 4): as the sequence (P28340 whole entry H1066Y, chain 1 of 4) above, with Y1066W counted along it
T2 sequence (P49005 whole entry, chain 2 of 4): as the sequence (P49005 whole entry, chain 2 of 4) above
T2 sequence (Q15054 whole entry, chain 3 of 4): as the sequence (Q15054 whole entry, chain 3 of 4) above
T2 sequence (Q9HCU8 whole entry, chain 4 of 4): as the sequence (Q9HCU8 whole entry, chain 4 of 4) above
Sequence of POLD1 WT (catalytic subunit of Pol delta);POLD2;POLD3;POLD4 (P28340 whole entry, stated change not applied, chain 1 of 4): as the sequence (P28340 whole entry H1066Y, chain 1 of 4) above, with Y1066H counted along it
Sequence of POLD1 WT (catalytic subunit of Pol delta);POLD2;POLD3;POLD4 (P49005 whole entry, stated change not applied, chain 2 of 4): as the sequence (P49005 whole entry, chain 2 of 4) above
Sequence of POLD1 WT (catalytic subunit of Pol delta);POLD2;POLD3;POLD4 (Q15054 whole entry, stated change not applied, chain 3 of 4): as the sequence (Q15054 whole entry, chain 3 of 4) above
Sequence of POLD1 WT (catalytic subunit of Pol delta);POLD2;POLD3;POLD4 (Q9HCU8 whole entry, stated change not applied, chain 4 of 4): as the sequence (Q9HCU8 whole entry, chain 4 of 4) above

B1: dsDNA probe (Fig 3C,D) (dsDNA)
DNA 1: GTTTCTTCAATCTTCATCATACAGGTCAG
DNA 2: CTGACCTGTATGATGAAGATTGAAAGAAAC
binds: [1] | [2] | [3]

B2: primer-template (Fig 3A,B) (mixed)
DNA 1: GTTTCTTCAATCTTCATCATACAGGTCAG
DNA 2: CTCGTCAGCATCTCGTCTGACCTGTATGATGAAGATTGAAAGAAAC
binds: [4] | [5] | [6] | [7] | [8] | [9] | [10] | [11]

B3: ssDNA probe (Fig 3E,F) (ssDNA)
DNA: GTTTCTTCAATCTTCATCATACAGGTCAG
binds: [12] | [13]
